Measurements published in the supplement of paper PMC10567573.

B1: RHOBTB2 (parent)
chain: HHHHGRDFLLRAASFDVCESVDEA

Variants of: B1
Assay: protein stability index of a GFP-peptide fusion (GPS, HEK-293T) (PSI 1-6); higher = more stable
Conditions: c terminus: a fixed tail appended
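Note: lentivirally expressed fusions sorted by FACS into six bins by GFP to DsRed ratio, PSI derived from sequencing read proportions per bin multiplied by bin number.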

Protein stability index, by site and new letter:
V17: G 3.99 | L 3.2 | F 3.12 | Q 4.24 | W 3 | I 3.37 | R 3.52 | A 4.04 | E 4.56 | C 4.17 | H 3.55 | D 4.54 | N 4 | P 4.7 | M 3.68 | Y 4.16 | T 3.53 | S 4.11 | K 3.94
V21: N 4.18 | E 4.51 | A 3.8 | G 4.17 | R 3.68 | L 3.62 | D 4.84 | C 3.25 | Y 3.66 | Q 4.2 | K 4.5 | F 3.47 | I 3.96 | S 3.62 | M 3.92 | P 3.61 | W 3.61 | H 3.08 | T 3.56
S20: L 3.16 | N 3.98 | Y 3.21 | T 4 | F 2.88 | V 3.03 | C 2.94 | K 4.12 | H 2.81 | P 3.76 | W 2.39 | M 2.71 | A 3.08 | E 4.46 | D 4.1 | R 3.34 | I 2.73 | Q 3.83 | G 4.1
E23: P 3.65 | Q 3.66 | H 2.93 | M 3.34 | C 2.67 | G 3.21 | F 2.37 | Y 2.83 | V 2.45 | S 3.25 | N 3.26 | I 2.92 | A 2.94 | R 3.37 | W 2.52 | D 3.39 | K 2.57 | L 2.02 | T 3.13
C18: Q 4.03 | G 4.24 | V 3.95 | P 4.42 | K 3.94 | H 3.4 | N 4.21 | R 3.65 | E 4.77 | A 3.96 | Y 2.82 | I 3.57 | M 3.37 | S 4.06 | L 2.9 | T 3.7 | F 3.54 | D 4.75 | W 2.48
D22: A 3 | N 3.14 | R 3.15 | P 2.85 | H 2.99 | M 3.04 | F 2.21 | Y 2.44 | V 2.91 | S 3.44 | E 3.77 | W 1.82 | G 3 | C 2.56 | T 3 | Q 3.09 | L 2.33 | I 2.5 | K 3.33
A24: E 4.15 | F 2.65 | H 3.92 | I 3.17 | K 3.85 | D 4.26 | G 3.88 | C 3.04
D16: H 2.84 | I 2.14 | C 1.97 | P 3.19 | E 3.74 | F 1.89 | Q 3.5 | K 2.79 | V 2.33 | Y 1.67 | A 3.37 | N 3.31 | R 2.48 | M 2.44 | T 3.36 | S 3.17 | G 3.06 | L 2.11
E19: M 2.44 | K 3 | T 2.76 | Y 1.74 | S 2.71 | D 3.72 | L 1.56 | F 2.22 | R 2.73 | N 3.54 | C 2.42 | I 2.17 | Q 3.34 | W 2.2 | H 2.9 | V 2.49 | P 3.06 | A 2.9 | G 3.07
F15: W 3.94 | S 4.76 | Q 4.1 | V 4.33 | Y 3.92 | P 4.37 | R 4.88 | T 4.74
